T1: biotinylated human erythrocyte β-spectrin repeats 12–17 (human, UniProt P11277 1486-2083, biotin (biotinylated; site not stated))
T1 sequence (looked up): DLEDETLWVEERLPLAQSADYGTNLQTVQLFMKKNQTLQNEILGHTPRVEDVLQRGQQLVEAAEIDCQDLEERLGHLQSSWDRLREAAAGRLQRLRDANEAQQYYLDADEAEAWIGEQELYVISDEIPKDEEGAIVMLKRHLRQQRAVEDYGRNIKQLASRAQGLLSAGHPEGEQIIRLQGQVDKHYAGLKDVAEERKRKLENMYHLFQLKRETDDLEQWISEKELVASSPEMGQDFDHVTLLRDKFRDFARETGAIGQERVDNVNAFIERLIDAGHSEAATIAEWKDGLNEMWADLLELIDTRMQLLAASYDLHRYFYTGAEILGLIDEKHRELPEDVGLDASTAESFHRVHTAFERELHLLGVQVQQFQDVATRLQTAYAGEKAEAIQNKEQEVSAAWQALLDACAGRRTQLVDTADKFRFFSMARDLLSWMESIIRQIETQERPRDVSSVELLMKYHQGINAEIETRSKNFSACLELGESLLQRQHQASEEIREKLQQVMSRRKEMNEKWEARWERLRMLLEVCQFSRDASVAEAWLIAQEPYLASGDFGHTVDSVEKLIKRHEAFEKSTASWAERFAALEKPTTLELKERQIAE

B1: ZU5A-ZU5B fragment of human erythrocyte ankyrin (ankyrin-R), residues 911–1233 (domain or fragment, UniProt P16157 911-1233, looked up)
chain: TGFLVSFMVDARGGSMRGSRHNGLRVVIPPRTCAAPTRITCRLVKPQKLSTPPPLAEEEGLASRIIALGPTGAQFLSPVIVEIPHFASHGRGDRELVVLRSENGSVWKEHRSRYGESYLDQILNGMDEELGSLEELEKKRVCRIITTDFPLYFVIMSRLCQDYDTIGPEGGSLKSKLVPLVQATFPENAVTKRVKLALQAQPVPDELVTKLLGNQATFSPIVTVEPRRRKFHRPIGLRIPLPPSWTDNPRDSGEGDTTSLRLLCSVIGGTDQAQWEDITGTTKLVYANECANFTTNVSARFWLSDCPRTAEAVNFATLLYKEL
B2: Ankyrin-R Death domain (DD), residues 1394–1497 (domain or fragment, human, UniProt P16157 1394-1497, looked up)
chain: PGSLSGTEQAEMKMAVISEHLGLSWAELARELQFSVEDINRIRVENPNSLLEQSVALLNLWVIREGQNANMENLYTALQSIDRGEIVNMLEGSGRQSRNLKPDR

Assays:
[1] = biological target: T1, biotinylated human erythrocyte …; test: SPR
SEC = biological target: the molecule itself; test: SEC

| Binder | Kd [1] [nM] | stoichiometry N (SEC) |
| --- | --- | --- |
| B1 | 8.3 |  |
| B2 |  | 2 |

Source: PMC3312341 (Journal of Molecular Biology, 2012)
